The target of one series is T1, AtNAT4 (Arabidopsis thaliana, UniProt P93039).
T1 construct: gene NAT4; full-length cDNA from transporter library, cRNA expressed in Xenopus laevis oocytes
T1 sequence (P93039 1-526): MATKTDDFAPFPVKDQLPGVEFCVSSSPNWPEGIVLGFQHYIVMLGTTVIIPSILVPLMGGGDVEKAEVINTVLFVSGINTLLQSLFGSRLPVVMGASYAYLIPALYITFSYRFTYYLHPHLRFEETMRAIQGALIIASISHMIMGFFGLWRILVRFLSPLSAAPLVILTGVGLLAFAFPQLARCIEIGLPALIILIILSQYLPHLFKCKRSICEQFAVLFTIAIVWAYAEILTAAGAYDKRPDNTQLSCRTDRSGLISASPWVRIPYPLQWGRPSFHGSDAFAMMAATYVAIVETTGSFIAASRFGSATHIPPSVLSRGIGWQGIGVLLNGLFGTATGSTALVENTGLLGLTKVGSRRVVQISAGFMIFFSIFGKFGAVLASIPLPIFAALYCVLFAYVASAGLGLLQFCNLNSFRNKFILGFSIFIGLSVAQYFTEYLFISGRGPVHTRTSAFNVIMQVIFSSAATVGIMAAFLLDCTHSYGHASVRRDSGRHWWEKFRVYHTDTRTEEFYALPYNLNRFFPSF
In words: uptake screen in Xenopus oocytes, LC-MS. The series is classed as cell-based. The note with it: pH 5.0; Kulori buffer; 0.5-1 mM loganin, 1 h.

The target in the next series is T2, AtNPF2.9 (Arabidopsis thaliana, UniProt Q9M9V7).
T2 construct: gene NPF2.9; full-length cDNA from transporter library, cRNA expressed in Xenopus laevis oocytes
T2 sequence (Q9M9V7 1-587): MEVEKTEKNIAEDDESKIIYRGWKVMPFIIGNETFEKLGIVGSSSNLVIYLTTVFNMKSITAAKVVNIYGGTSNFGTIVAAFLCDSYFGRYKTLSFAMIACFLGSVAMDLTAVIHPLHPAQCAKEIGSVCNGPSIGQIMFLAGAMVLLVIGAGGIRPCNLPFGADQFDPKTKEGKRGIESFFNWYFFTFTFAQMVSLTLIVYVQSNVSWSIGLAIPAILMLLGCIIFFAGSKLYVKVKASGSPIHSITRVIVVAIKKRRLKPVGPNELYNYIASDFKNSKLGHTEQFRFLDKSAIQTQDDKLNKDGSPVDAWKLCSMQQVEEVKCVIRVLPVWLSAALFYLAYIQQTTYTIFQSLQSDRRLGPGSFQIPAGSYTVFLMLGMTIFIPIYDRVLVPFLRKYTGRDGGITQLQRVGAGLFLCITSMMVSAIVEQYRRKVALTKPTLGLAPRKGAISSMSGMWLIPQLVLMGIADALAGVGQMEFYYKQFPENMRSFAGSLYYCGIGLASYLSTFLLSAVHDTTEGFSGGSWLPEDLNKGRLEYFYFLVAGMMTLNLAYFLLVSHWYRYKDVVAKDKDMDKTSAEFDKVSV
Kind of series: uptake screen in Xenopus oocytes, LC-MS. The note with it: pH 5.0; Kulori buffer; 0.5-1 mM loganin, 1 h. In kind it is cell-based.

Substrate in series [1]: COC(=O)C1=CO[C@@H](O[C@@H]2O[C@H](CO)[C@@H](O)[C@H](O)[C@H]2O)[C@@H]2[C@@H](C)[C@@H](O)C[C@H]12
In words: uptake into Xenopus oocytes, LC-MS, Michaelis-Menten fit. The series is classed as cell-based, Catharanthus roseus. Conditions: pH 5.0, Kulori buffer, 12.5 µM to 2 mM loganin.

As for `COC(=O)C1=CO[C@@H](O[C@@H]2O[C@H](CO)[C@@H](O)[C@H](O)[C@H]2O)[C@@H]2[C@@H](C)[C@@H](O)C[C@H]12` [loganin, (1S,4aS,6S,7R,7aS)-6-hydroxy-7-methyl-1-[(2S,3R,4S,5S,6R)-3,4,5-trihydroxy-6-(hydroxymethyl)oxan-2-yl]oxy-1,4a,5,6,7,7a-hexahydrocyclopenta[c]pyran-4-carboxylate], the “uptake screen in Xenopus oocytes, LC-MS” value was “Two transporters were identified” at AtNAT4 and “initially screened cDNA library” at AtNPF2.9.

B1: CrNPF2.6 (Catharanthus roseus) (protein)
chain: MEKNEKLVPNGTKEDGKVAAKNEPNYRGIKAMPFVLGNETCEKLGTIGTSSNLSVYLSTVFHMNTMSANNVINIFNGTCYLGSLVGAFLCDTYFGRYKTLGLGSVASFLGMLMLTLTAAISTLHPTNCDNSGDCKGPSAGQMAFLVGGFVLMVIGASGIRPCNLAFGADQFNPNTESGRRGINSFFNWYYFTYTFAVMVSATIIVYVQSDISWSIGFAIPTSLMFLSCALFFAGTWLYVKVLPQGSPMTSLVQVIVVSVKKRRLKLPGEPSLLFNHIPSNAINSKLPRTNNFRFLDKAAILTPEDKVNPDGSAANKWKLCSIQQVEEVKCVLRVLPIWIAGVIFQISVTQQSNYVPFQAFQSDRHLIKGNKFQIPAGTYNVFSMLALTIWLPIYDRIIIPLLRRWTKKEDGITLLQRMGVGIVLSILSMLVSALVESRRRNLALTRPTLGIQEGQGSISSMSALWFVPQLALMGLAEGFTFIGENELFYKEFPENMRSIAASLVLCGVAVASYLTSFIAEIVHKTTRSGTRDWLAQDLNKARLDYFFYMVAVLEALNLVYFLVCAKWYRYKGTGDLGKLEVAMEKLETEKHLV
notes: full-length, Gateway cloned from C. roseus cDNA into pOO2-GW, cRNA expressed in Xenopus laevis oocytes
One may read the Km as the substrate concentration at which the rate is half of its maximum. On to B1, for which the Km in series [1] is listed as 60 ± 5 µM.

B2: CrNPF2.5 (Catharanthus roseus) (protein)
chain: MEENQEHKAIKNHEPNYRGIKAMPFVIGNETFEKLGTIGTSTNLLIYLTSVFHMKTITATNLVNIFNGTCNFGTLVGAFLCDTYFGRYNTLGFASVSSFLGMLVLTLTAAIKNLHPEACGNEEGSKCISPSGGQMAFLLSGFAFLIVGASGIRPCNLAFGADQFNPNTDSGRRGINSFFNWYYFTYTFAMMVSLTIIVYVQSNISWSIGLAIPTFLMFLSCATFFVGTRIYVRVLPEGSPLISVARVIVSAFKKRKLELPDEPKLSLFNHSASSTSSINSKISYTDQFRFLNKAAIITSEDEFNSDGSVKNPWRICTIQQVEEVKCLLKLIPVWISCIIYYISVVQQQNYVVFQALQSDRRLFGTSKFKIPAASYIVIAMLALTIWIPIFDRIIVPCLQKITGKEGGITILQRMGIGMVLSVLTMITSALVESKRRKFALNRPTLGFEPRKGAISSMSGVWLIPQLALSGLSEAFTIIGENELFYKECPENMRSIAMALVFVGFAGSSYLSSLLSSIVQKTTGGNESWLAEDLNRGRLDYFYYLIGALETLNLIYFLVCSKWYKYKQVEKIPQVAMEKLNNVEEKSLV
notes: as for B1
Take B2: the Michaelis-Menten constant (Km) in series [1] worked out at 387 ± 57 µM.

B3: CrNPF2.4 (Catharanthus roseus) (protein)
chain: MAEKSSSIDATENGFVKIKEPNHRGVKAMPFIVGNETFEKLGTLGTSANLLIYLTTVFHMKSITATNLINIFNGTCNFGTLLGAFFSDTYFGRYKTLGFASVSSTLGMLILTLTAAISKLHPPSCEKNSKACSGPTSGQFAFLFTAFLFLIIGASGIRPCNLAFGADQFNPNTESGRKGTNSFFNWYYFTFTFAMMVSLTVIVYVQSSISWALGLAIPTFLMLLSCVFFFVGSRIYVKVLPEGSPLTSMMQVIVAAFRKRKLNLPDHQPWDSLFNYISPSSINSKLSYTDQFRWLNKAAIKTSKDHLYAEGSTANPWRLCSMQQVEEVKCVIRSIPIWTSGVLYYVVLNQMSTYLVFQALQSDRRIGKTNFKIPAASYTVFSMLSLSIWIPIYDRIIVPFLRKITKTEQGITILQKMGFGLVIAVITMVVSAIIEDKRRVIALTRPIVGIEERKGGISSLSGFWLVPQLALAGISEAFTVIAQVEFFYKQFPENMRSFGGSFLFCGFAISSYLSSFLISIVHKVTRNSSGGNWLDEDLNKARLDYFYYLVAGLEVLNFGYFLVCAHWYRYKETQSGNEIAMEQILDEPKKNLDVV
notes: as for B1
Turning to B3, in series [1], the Km is given as 237 ± 35 µM.

Values taken from publication PMC5921532, “Identification of Iridoid Glucoside Transporters in Catharanthus roseus” (Plant and Cell Physiology, 2017).
